# Results reported in article PMC5762688 (Scientific Reports, 2018).
# B1: Hendra virus V protein residues 1-405, tagless recombinant (domain or fragment)
# chain: MDKLDLVNDGLDIIDFIQKNQKEIQKTYGRSSIQQPSTKDRTRAWEDFLQSTSGEHEQAEGGMPKNDGGTEGRNVEDLSSVTSSDGTIGQRVSNTRAWAEDPDDIQLDPMVTDVVYHDHGGECTGHGPSSSPERGWSYHMSGTHDGNVRAVPDTKVLPNAPKTTVPEEVREIDLIGLEDKFASAGLNPAAVPFVPKNQSTPTEEPPVIPEYYYGSGRRGDLSKSPPRGNVNLDSIKIYTSDDEDENQLEYEDEFAKSSSEVVIDTTPEDNDSINQEEVVGDPSDQGLEHPFPLGKFPEKEETPDVRRKDSLMQDSCKRGGVPKRLPMLSEEFECSGSDDPIIQELEREGSHPGGSLRLREPPQSSGNSRNQPDRQLKTGDAASPGGVQRPGTPMPKSRIMPIKKG
# Target: Importin α2/β1 heterodimer (mouse), tagless recombinant, preformed (mouse, UniProt P52293 1-529; P70168 1-876)
# Experiment: […]; 10 mM Tris, 150 mM NaCl, 10% glycerol, 0.75 mM TCEP, pH 8.0; […]
# Conditions: both partners purified
binder,measurement,value
B1,binding result,binds
